Experimental data from the RNAGym collection of RNA variant scans (doi:10.7554/elife.80360).

B1: Hairpin Ribozyme (parent)
chain: GUCCUCUUUCACGUGCGCGUGAAAGAGAGAAGUGAACCAGAGAAACACACGUUGUGGUAUAUUACCUGGUA

Variants of: B1
Assay: self-cleavage, relative activity (ratio to wild type); higher = more cleavage; co-transcriptional
In the case of A24U A39G, the self-cleavage is reported as 0.34. In the case of A23C A64G, the self-cleavage is reported as 0.646. With A22U A31G the self-cleavage was 0.589. In the case of A22U A31U, the self-cleavage is reported as 0.12. Variant A24G A45G has a self-cleavage of 0.104. For A23C A24G, the self-cleavage was 0.85. Work on A23C A24C yielded a self-cleavage of 0.718. A22G A59C showed a self-cleavage of 0.122. In the case of A23G G68U, the self-cleavage is reported as 0.198. In the case of A23G G68A, the self-cleavage is reported as 0.311. Variant A23G G68C has a self-cleavage of 0.101. In the case of A22U G69U, the self-cleavage is reported as 0.259. A22G U62A gave a self-cleavage of 0.189. A22G U62G showed a self-cleavage of 0.122. Work on A24C A35G yielded a self-cleavage of 0.864. Work on A22C U63C yielded a self-cleavage of 0.203. A22G A24C showed a self-cleavage of 0.705. A24C A71G showed a self-cleavage of 0.99. A24C G25U showed a self-cleavage of 0.388. With A23U A71C the self-cleavage was 1.28. With A22U C48A the self-cleavage was 0.16. Work on A23C A61C yielded a self-cleavage of 0.143. A24G U63C gave a self-cleavage of 0.0931. A22U U55G gave a self-cleavage of 0.298. In the case of A22U U33A, the self-cleavage is reported as 0.172. Variant A23C G54C has a self-cleavage of 0.337. Variant A23G G56U has a self-cleavage of 0.162. A23G G56C gave a self-cleavage of 0.145. With A24U A28U the self-cleavage was 0.521. With A24U A28G the self-cleavage was 0.731. Work on A23U A43G yielded a self-cleavage of 0.204. In the case of A22U U60C, the self-cleavage is reported as 0.719. For A22U U60G, the self-cleavage was 0.611. A24C A30G showed a self-cleavage of 0.201. Variant A22U A47C has a self-cleavage of 0.345. Work on A22U A47U yielded a self-cleavage of 0.202. Work on A24G G69U yielded a self-cleavage of 0.13. Variant A23G A43C has a self-cleavage of 0.169. A22G U60C gave a self-cleavage of 0.899. Variant A22G U60G has a self-cleavage of 0.416. Work on A23U A41C yielded a self-cleavage of 0.798. A24G A64U gave a self-cleavage of 0.135. Work on A24G G68A yielded a self-cleavage of 0.172. Work on A23U U60C yielded a self-cleavage of 0.749. For A23U U60G, the self-cleavage was 0.569. For A23G G54C, the self-cleavage was 0.363. With A23G G54U the self-cleavage was 0.586. For A23C A35G, the self-cleavage was 0.942. A24C A28C showed a self-cleavage of 0.349. A23G G32C gave a self-cleavage of 0.163. Work on A23G G32U yielded a self-cleavage of 0.0923. A24G G40U showed a self-cleavage of 0.147. A23G U67G showed a self-cleavage of 0.18. A23C A28G gave a self-cleavage of 0.977. Variant A23C A28C has a self-cleavage of 0.349. A23G U62C gave a self-cleavage of 0.43. For A23G U62G, the self-cleavage was 0.0705. Work on A23G U60C yielded a self-cleavage of 0.924. Work on A23G U60G yielded a self-cleavage of 0.516. For A23C A59G, the self-cleavage was 0.143. Variant A23C A59C has a self-cleavage of 0.193. A24C C66U showed a self-cleavage of 0.395. In the case of A23G A28G, the self-cleavage is reported as 1.23. With A23C G29C the self-cleavage was 0.126. For A23G G34C, the self-cleavage was 1.07. Variant A24G A61U has a self-cleavage of 0.084. Work on A22G A45G yielded a self-cleavage of 0.115. A22G A45U showed a self-cleavage of 0.268. A23C U67C gave a self-cleavage of 0.249. Work on A23C U67A yielded a self-cleavage of 0.211. A23U U63A showed a self-cleavage of 0.142. With A23U U63C the self-cleavage was 0.182. For A23U C38A, the self-cleavage was 0.17. In the case of A23U C38G, the self-cleavage is reported as 0.167. A24C C37U gave a self-cleavage of 0.455. A24C C37G gave a self-cleavage of 0.242. Variant A23U A28G has a self-cleavage of 0.956. For A22G A44U, the self-cleavage was 0.123. A22G A44G gave a self-cleavage of 0.193. In the case of A23G A41U, the self-cleavage is reported as 1.09. With A23G A41C the self-cleavage was 1.19. For A23C A47G, the self-cleavage was 0.132. In the case of A22U C46G, the self-cleavage is reported as 0.166. A23C U53G showed a self-cleavage of 0.562. With A23C U53C the self-cleavage was 0.702. For A24G G51U, the self-cleavage was 0.881. In the case of A24G G51A, the self-cleavage is reported as 0.745. With A22G G25C the self-cleavage was 0.547. Work on A22U C38A yielded a self-cleavage of 0.155. A22U C38U showed a self-cleavage of 0.41. For A24G A47G, the self-cleavage was 0.191. Variant A24G A47C has a self-cleavage of 0.245. A24C A45G gave a self-cleavage of 0.171. Work on A24C A45C yielded a self-cleavage of 0.235. A23C A44U showed a self-cleavage of 0.129. In the case of A23C A44G, the self-cleavage is reported as 0.056. For A23U A44C, the self-cleavage was 0.133. A24G U62C showed a self-cleavage of 0.257. Work on A24G U62G yielded a self-cleavage of 0.0667. Work on A23C G57A yielded a self-cleavage of 0.196. Work on A23U A47C yielded a self-cleavage of 0.386. With A22U A43G the self-cleavage was 0.237. In the case of A23G U52G, the self-cleavage is reported as 0.78. A23G U70C gave a self-cleavage of 0.934. For A22U A59G, the self-cleavage was 0.117. Variant A22G C65U has a self-cleavage of 0.395. In the case of A23G C46G, the self-cleavage is reported as 0.245. With A23G C46A the self-cleavage was 0.132. In the case of A23G C65U, the self-cleavage is reported as 0.349. For A24C A44U, the self-cleavage was 0.17. A23C U52G gave a self-cleavage of 0.489. In the case of A23C U52C, the self-cleavage is reported as 0.77. With A23C G40C the self-cleavage was 0.0333. A24C C48U showed a self-cleavage of 0.216. With A23U G34A the self-cleavage was 0.956. In the case of A23G U55G, the self-cleavage is reported as 0.192. With A24C A47C the self-cleavage was 0.272. In the case of A24C A47G, the self-cleavage is reported as 0.113. Work on A24G A49G yielded a self-cleavage of 0.352. A24G A49U gave a self-cleavage of 0.124. A22G U67C showed a self-cleavage of 0.231. A22G U67G showed a self-cleavage of 0.247. With A22G U67A the self-cleavage was 0.239. Variant A24G G27A has a self-cleavage of 0.401. With A24G A36C the self-cleavage was 0.466. Work on A24G G29A yielded a self-cleavage of 0.11. Work on A22U G25U yielded a self-cleavage of 0.253. For A22U A23U, the self-cleavage was 0.842. A24G A28U gave a self-cleavage of 0.475. A24G A28C gave a self-cleavage of 0.338. Variant A23G U53C has a self-cleavage of 0.995. In the case of A22U A36G, the self-cleavage is reported as 0.849. For A22U A36C, the self-cleavage was 0.589. A23G A24G showed a self-cleavage of 0.715. Variant A23C U60G has a self-cleavage of 0.61. A23C A36U showed a self-cleavage of 0.475. With A23C A36C the self-cleavage was 0.286. A23C U62G gave a self-cleavage of 0.0867. Work on A22G G32C yielded a self-cleavage of 0.0859. In the case of A22G G68A, the self-cleavage is reported as 0.307. Work on A22G G68U yielded a self-cleavage of 0.362. Work on A22G G68C yielded a self-cleavage of 0.182. Work on A23C G27A yielded a self-cleavage of 0.464. A23C G27C gave a self-cleavage of 0.187. With A23C C37A the self-cleavage was 0.18. Variant A23C C66U has a self-cleavage of 0.448. A23C C66A gave a self-cleavage of 0.218. Work on A24G A41G yielded a self-cleavage of 0.78. Work on A22G A71C yielded a self-cleavage of 1.28. In the case of A24C U53G, the self-cleavage is reported as 0.733. In the case of A23U U33A, the self-cleavage is reported as 0.153. Work on A24G U33G yielded a self-cleavage of 0.0457. With A24G U33C the self-cleavage was 0.125. A23U U62A showed a self-cleavage of 0.106. In the case of A24U A36U, the self-cleavage is reported as 0.41. For A23G A26G, the self-cleavage was 0.648. Work on A23G A26C yielded a self-cleavage of 0.524. Variant A24G A59G has a self-cleavage of 0.272. A24G U55G gave a self-cleavage of 0.193. For A24G C66A, the self-cleavage was 0.214. A24G C66U gave a self-cleavage of 0.403. A22U A41G showed a self-cleavage of 0.776. A22U A41U showed a self-cleavage of 1.14. A23C A31C gave a self-cleavage of 0.185. Work on A23C A31U yielded a self-cleavage of 0.179. A23G G29C showed a self-cleavage of 0.123. Work on A23G G29A yielded a self-cleavage of 0.0583.
